The data set in a line: soluble on expression in E. coli; label from the status in PepcDB or PDB records.
Regarding “MKTLGEFIVEKQHEFSHATGELTALLSAIKLGAKIIHRDINKAGLVDILGASGAENVQGEVQQKLDLFANEKLKAALKARDIVAGIASEEEDEIVVFEGCEHAKYVVLMDPLDGSSNIDVNVSVGTIFSIYRRVTPVGTPVTEEDFLQPGNKQVAAGYVVYGSSTMLVYTTGCGVHAFTYDPSLGVFCLCQERMRFPEKGKTYSINEGNYIKFPNGVKKYIKFCQEEDKSTNRPYTSRYIGSLVADFHRNLLKGGIYLYPSTASHPDGKLRLLYECNPMAFLAEQAGGKASDGKERILDIIPETLHQRRSFFVGNDHMVEDVERFIREFPDA”, the “soluble on expression in E. coli” value is listed as “soluble”. Under “MAHHHHHHMSLVKMKERDEKAREEAEKLLNEVIEQSQGKMYKPTAAAGVGVNTQPHNRRMRVETLRSTPDYIFKIILVGDSYVGKTRFLKNLVGAIGFGDQCVTTLSVDVVNHYVIVDGKTVQVLMYDTCGQERFRAMTAQFYRDAHGAIMVYDTTQIGSFDNIEVWFSQLNSFGCENTSKILVGNKCDLPERRAVEIGRARALADKLGVPFIETSAMTGAGVAVAVEALVRMIMRQQPVPLASQWAGSKSGHRNAVNLERPRRENGTGRRSERSQRNDNCCCQ” stands “soluble”; under “MSLKANNLLSQFGDHRQRVQSAITAVCEGRGILLVDDENRENEGDLIFSAQSMTEADMAIMIRHCSGIVCLCITEEKARQLNLPLMVEQNTSKYGTAFTISIEAAEGVTTGVSAADRIQTIRTAIAPNATPESLHHPGHIFPLIARSGGIKERSGHTEGSIDLMKLAGLAPCAVLCELTNDDGTMARLPEIIKFGLEHKYPVVTINDLKEYQTAPDFLPKLVGSFSCPAAENPTTAIMEAAFRHHYMHYRYINCEVGPENLAAAIQGAKAMGWRGFNCSLPNKVEIIRYLDELGESAKIIGAVNTVVIGDDQRATGENTDGKGFVKAISEIITIQDKKIALLGAGGAARAIAVEMALAGVKEITILNRNRDKGQALADLLNSQTVATARFVLWDHPYRFSTDIDIVINATSVGLYSNVDQRLNIDTDTLLPHMVVADCIPNPVYTQLLRDAVRRGCCHVLPGMKMLVYQAVIAIKYWSGVDVDPDIMLEKLKEVVKEGHHHHHH”, “soluble”. In the case of “GQLDDVLMPYVGDQTEAQIYKKLRHFWIMLDRTLPDAFMHVNIGPTDNIICRTILRVDAELKQIAPNLTFMYDESITPDDLLRQATKNICDCSKPHIANYPIHANAYDGERFGIVSCYNSLPLAGGSNTLVRMNLKEVAKRAASRDDFFSNVLPTYHQLMTELMDARSSHLHEQSQFFQGFLTQEGLIEESRFAPMYGIYGMAEAVNLLLEKEGQTSRYGQDERANALGHEISASLATLVDSTPVRYGLEGKALLHAQGGISLDLDVTPGVRLPYGNEPDPVTYVQATAAHHQYYRAGISDILTIDETVKSNPEAMFNLCKGALNAGYREFTANVASNDLVRVTGYMVKLSDIAKYDAEGSRTNTTFLGAEAAKNTGILERSPRVVSQEMSPVYK”, the “soluble on expression in E. coli” value is recorded as “not soluble”. Take “GSHSLRYFYTAVSRPGLGEPWFIIVGYVDDMQVLRFSSKEETPRMAPWLEQEEADDWEQQTHIVTIQGQLSERNLMTLVHFYNKSMDDSHTLQWLQDCDVEPDRHLCLWYNQLAYDSEDLPTLSENPSSCTVGNSTVPQISQHLEGHCSDVLQKYLEKGKERLLRSDPPKAHVTRHPRPEGDVTLRCWALGFYPADITLTWQKDGEELTQDVEFVETRPAGDGTFQKWAAVVVPLGKVQSYTCHVDHEGLPEPLTLRWEP”: the “soluble on expression in E. coli” value is given as “soluble”.

As for “MSLTLVTELTPPAASAPPFSDHPDHVIAAVTATIVDLPLRRPHFHATGTHATQSLVMVELVTSGGAVGWGEGGTPGGTAFWGGECVETIKLMIDHYLAPAVIGISVFDQERILAAMDRIAANNHFAKAAIDIAVHDAAARLIGISVSQMFGGTARSTVPVLWALAAAAYEADVADAIEQIEAGRHSVFKIKIGKGDAASETRRALETATTIHDAHPDARFVVDLNQAWDESTAMRWLAAFQERDFLFVEQPVPAWNVEGMIRLASRFEIPIMADEGLWDFHDAYELIRRGATDIYAVKIAKGGGLRRAFKAAAVAEAAGVPLYGGMALESSVGTAAGLQLFSALPNLPFGCELIGPRLLAEDLTVQPIAYRDREVVVPSGVGMGVEIDRDRVRSFTRRNKEGHHHHHH”, the “soluble on expression in E. coli” value was “soluble”. In the case of “MGFKQDIATIRGDLRTYAQDIFLAFLNKYPDERRYFKNYVGKSDQELKSMAKFGDHTEKVFNLMMEVADRATDSVPLASDANTLVQMKQHSSLTTGNFEKLFVALVEYMRASGQSFDSQSWDRFGKNLVSALSSAGMK”, the “soluble on expression in E. coli” value is listed as “soluble”. Under “MHIQIDGIPIEILRKPIKNLNLRIYPPDGLVKVSVPLKYSEQLIKQQLQEKSKWIRAQCEQIRARSFYREPSLQTGATIPFKGKSYLLIVEEHYGPSQILIKNELIYCYTKPDLTPQQKQNILDRWYRKEMNLVIPRLIQQWEAIMKVKINQWGIKKMKTRWGSCNPRAQRIWLNLNLIKKPLECLEYVLVHEMVHILEASHNKRFYALMTQFMPKWQEYQRILEGTPNASTFARLEHHHHHH” stands “not soluble”; under “MKYAVLIGDGMADYPIEELGSRTILQAARTPAMDSIAARGKTGLAKTVPEGFPPGSDVANMSIFGYDPAIYYSGRAPLEAASMGVALAADDVAFRCNLITIENGKIKDYSAGHISSDEAEILIDTLDSELRTEKVRFYPGISYRHLIVAGNDLGAETECTPPHDITGERKDDYLPRGKDGEFFSGLIEASTVVLELHPVNLKRVQEGKNPANSIWVWGQGYAPKFKTFQELYGKSGAIISAVDLLKGIGIYAGLDVIEVPGATGYLDTNYEGKASAAIEALKTRDLVFVHVEAPDEAGHEGSLEKKMKAIEDFDSRIVSPILKHAEASDETFTILVLPDHPTPISVKTHTRDPIPFAIYRTDAADPDGVEYFDEESVKNGSMGLVKASDLIGMLVKVLEHHHHHH”, “not soluble”.

In the case of “MGSDKIHHHHHHMYREYQPCGLLAPYVDKIWEFKGSPEYGMRINVLPDGCTDLIFALGGITQPVGSEGRIMPSCRSFFVGPMKRYSELVAYTETVHMVGIRFHPCGLFRFMDLPVQELGGQRISSADLGIKLFDDSFTERLYELPDLRSRIQCIETVLVRSMHKHDVVDKQIVFAVNHIHLYHGQREIRLLAEDTCLCQRHLERRFKLFTGFTPKEYSRIVKFRHAIDLLKNTTEANNLLSVAVNAGYYDVSHFLKEVKTLSGGTAESFLSPTLPQEGLLTYIEK”, the “soluble on expression in E. coli” value was “not soluble”. In the case of “MIDADAIKMRILSMMEQLGMTPSAFADRAGISRSALTHITSGRNKVTLDMINKIMQGFDEWSAEWIIFGKGPQQSNKTAFENDLFSYSSVPEQELHTRTKDNCGIQSPSGRLEPEIKIVQMPAKQIERITVFYTDGSYQEFRSNKE”, the “soluble on expression in E. coli” value is on record as “not soluble”. Under “MKRNLLSSAIIVAIMSLGLTGCDDKKAETETLPPANSQPAAPAPEAKPTEAPVAKAEAKPETPAQPVVDEQAVFDEKMDVYIKCYNKLQIPVQRSLARYADWLKDFKQGPTGEERTVYGIYGISESNLAECEKGVKSAVALTPALQPIDGVAVSYIDAAVALGNTINEMDKYYTQENYKDDAFAKGKTLHQTFLKNLEAFEPVAESYHAAIQEINDKRQLAELKNIEEREGKTFHYYSLAVMISAKQINNLISQDKFDAEAAMKKVSELETLVAQAKEADKGGMNFSFINSAGQYQLEAKKYVRRIRDKVPYSDWDKEQLQDANSSWMVEDSFPRALREYNEMVDDYNSLR” stands “soluble”; under “MGSDKIHHHHHHMSLNQPPHTRLRHDNPRSPNTFPSRAKVVGAEDLATTSNASTGHGFNLARPVHRNREPATPAPRVVEGANRRRSACEQDISHRHEKIYNWAPAPNTRQGQPTRRLTSRSGPKEREHAARTPRTALQCQRVLALGRVRTCASCGRGSEVLLRGLCPECFDRRYGVVEGLPWELVVDVCTSCGRVRIGHKWLEYATAEEAVGLMLSSMSLKPVHPVERVELEDWALETRLDWRTRVRLRFRANYRDTLFRVSRVIVLRLNPSTCPLCIVRRSGEYDTLVQVRGYRAGEAVEKTLNSLDPREAPIDVVPVRGGVDVYFHHRGAAARFVSRLASTARVRVSRVEHEHVGTSSLGRRRSRKTILVRLEGLTGERGE”, “not soluble”; under “GPGSMETAIQQDPVYVRLGVFRRLHGSNEVEWLMLRRINREMRPPDIPPISLKLPGKWTLLYERYKEAAIRTLWEETGITVDPTSVFPTAQLYQTSPKYYWRVPVRYFVAEVPHDVRVEGPQVVPTQYMRNWDVRLLRQSPDPIDRAWAQLADPITGCAWMKAPMIDELQKPLRGEKYMATRYTPPPYSNLQEVVGLGDGDQDTQNKETEAADPNA”, “not soluble”. Under “GMWDETELGLYKVNEYVDARDTNMGAWFEAQVVRVTRKAPSRDEPCSSTSRPALEEDVIYHVKYDDYPENGVVQMNSRDVRARARTIIKWQDLEVGQVVMLNYNPDNPKERGFWYDAEISRKRETRTARELYANVVLGDDSLNDCRIIFVDEVFKIERPGE” stands “soluble”; under “MADETIAIVDADATAETRSLLSYLDGVRGEGILFGHQHTTSFGLTTGPTDGTTSDVKNVTGDFPAVFGWDTLIIEGNERPGLAENTRDENIALFADYIRKADAIGGVNTVSAHVENFVTGGSFYDTSGDTLRAVLPGGSHHAELVAYLDDIAELADASRRDDGTLIPIVFRPWHENAGSWFWWGAAYGSPGEYQELYRFTVEYLRDVKGVSNFLYAWGPGGGFGGNRDVYLRTYPGDAFVDVLGLDTYDSTGSDAFLAGLVADLRMIAEIADEKGKVSAFTEFGVSGGVGTNGSSPAQWFTKVLAAIKADPVASRNAYMETWRNADAGQHFVPVPGDALLEDFQAYAADPFTLFASEVTGAFDRTVAAAPAQPVVHIASPADGARVASAPTTVRVRVGGTDVQSVTVEVAQGGTVVDTLDLAYDGALWWTAPWSPTSAQLDNSTYTVTATATTAAGTLDVTNEVAAALEHHHHHH”, “soluble”. Under “MSLIKFNIAQWRAWAPGLESVDAWQAWSRQPALPENSDAAPDVSFLPAMQRRRLSRLARMAFSVGWPLAEGLEQLPLVFISRHGETPRTFEILSDLAAEQPLSPTQFSLSVHNAVIGLWSIMRGETSEMTALAAAGDGLEHGLLEAATLLADGAPHVLLVITEEQPPEAYASWIDDVPFPYALGLLLTPGDDWQLSLGSHDGQTPRAQWPHALNLLRTLLGAQTFCQHAWMNRVWTWQRNHEGHHHHHH” stands “soluble”; under “EDWNEIDPIKKKDLHHSNGEEKAQSMETLPPGKVRWPDFNQEAYVGGTMVRSGQDPYARNKFNQVESDKLRMDRAIPDTRHD”, “soluble”; under “MSLATVDKPLPPTDWKVVDNSKTYLKESAMRSFAFDDTLCTLAGKTGQSFIRFWVHENTIVLGTQDTRLPFIREAIEFIEQEGYRAVVRNSGGLAVCLDAGILNLSLVFPGEATFSIDEGYERMVTLVKAIFKEEQIEAGEIAGSYCPGSYDLSIDGKKFAGISQRRIRGGIAVQIYLCVQGSGSARAAFIRSVYNKAVQTSKPAFSYPDIKPEVMASLSELTNVPYSIETIIGRAKTAILESGGQLESAVLSPEEELLYETQLERMIDRHNRCLREGHHHHHH”, “soluble”.

The values are drawn from the DeepSol protein solubility set.
